# According to US20220125891A1 (OSAKA UNIVERSITY, published 2022):
# Like-named read-outs stand apart in the source and are kept apart here. Positions of bridges follow the written chain, without caps; N, C: chain ends. Non-standard residues stand in square brackets, D forms with d. No end group written: not given here. NMeA = CN[C@@H](C)C(=O)O; dNMeA = CN[C@H](C)C(=O)O
# T1: full-length human Regnase-1 with a FLAG tag on the N-terminal side and a biotin ligase BirA recognition … (human, UniProt Q5D1E8 1-599, biotinylated where required ; Biotinylated at the BirA recognition sequence where required. That sequence is not in the letters.)
# T1 construct: Expressed in Expi293 cells, purified on FLAG M2 agarose and by gel filtration; also called full-length Regnase-1; human full-length Regnase-1
# T1 sequence: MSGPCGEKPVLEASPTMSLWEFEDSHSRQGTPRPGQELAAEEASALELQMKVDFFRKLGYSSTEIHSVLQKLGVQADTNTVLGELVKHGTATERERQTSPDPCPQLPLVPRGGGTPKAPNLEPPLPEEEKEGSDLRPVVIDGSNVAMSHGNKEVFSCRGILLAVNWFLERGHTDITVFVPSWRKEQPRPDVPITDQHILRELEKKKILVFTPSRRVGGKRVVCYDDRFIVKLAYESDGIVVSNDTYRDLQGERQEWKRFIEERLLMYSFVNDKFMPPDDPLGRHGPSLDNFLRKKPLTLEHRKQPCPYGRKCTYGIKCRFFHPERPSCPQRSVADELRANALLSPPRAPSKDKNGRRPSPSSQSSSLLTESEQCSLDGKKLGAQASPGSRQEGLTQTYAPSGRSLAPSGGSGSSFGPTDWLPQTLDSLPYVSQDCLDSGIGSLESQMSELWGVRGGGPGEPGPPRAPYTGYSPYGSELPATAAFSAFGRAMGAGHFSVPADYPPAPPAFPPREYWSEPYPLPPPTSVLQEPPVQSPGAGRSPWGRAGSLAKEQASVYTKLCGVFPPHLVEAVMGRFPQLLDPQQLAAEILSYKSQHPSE
# T2: Reg1_301-599 (human Regnase-1 amino acids 301 to 599, FLAG tag on the N-terminal side, BirA recognition … (human))
# T2 sequence (Q5D1E8 301-599, looked up): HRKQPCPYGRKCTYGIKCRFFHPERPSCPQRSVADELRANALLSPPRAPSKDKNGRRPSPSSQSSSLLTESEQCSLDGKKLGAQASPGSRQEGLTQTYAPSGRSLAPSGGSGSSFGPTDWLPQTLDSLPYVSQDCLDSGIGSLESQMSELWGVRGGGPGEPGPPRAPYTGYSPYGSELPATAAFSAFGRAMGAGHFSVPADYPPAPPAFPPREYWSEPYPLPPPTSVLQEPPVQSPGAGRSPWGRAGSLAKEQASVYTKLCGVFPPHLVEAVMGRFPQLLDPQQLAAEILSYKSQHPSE
# Experiments:
# [1] = biological target: T1, full-length human Regnase-1 with a FLAG …; test: affinity selection-MS (SEC, LC/MS), 1 µM each
# [2] = biological target: T1, full-length human Regnase-1 with a FLAG …; test: AlphaScreen, blocks TBK1 binding to FL_Reg1
# [3] = biological target: T3, ΔCTD_Reg1 (human Regnase-1 amino acids 1 to 546, FLAG tag on the N-terminal side, BirA recognition sequence … (human)); test: cell-based or functional assay
# [4] = biological target: T1, full-length human Regnase-1 with a FLAG …; test: cell-based or functional assay
# [5] = biological target: T2, Reg1_301-599 (human Regnase-1 amino …); test: cell-based or functional assay
# [6] = biological target: T1, full-length human Regnase-1 with a FLAG …; test: AlphaScreen, blocks IKKβ binding to FL_Reg1
# [7] = biological target: T3, ΔCTD_Reg1 (human Regnase-1 amino acids …); test: cell-based or functional assay; remark: listed apart in the source
# [8] = biological target: T1, full-length human Regnase-1 with a FLAG …; test: cell-based or functional assay; remark: listed apart in the source
# [9] = biological target: T2, Reg1_301-599 (human Regnase-1 amino …); test: cell-based or functional assay; remark: listed apart in the source
# [10] = biological target: T1, full-length human Regnase-1 with a FLAG …; test: AlphaScreen, blocks TBK1 binding to FL_Reg1; remark: listed apart in the source
# [11] = biological target: T1, full-length human Regnase-1 with a FLAG …; test: AlphaScreen, blocks IKKβ binding to FL_Reg1; remark: listed apart in the source
# [12] = biological target: T3, ΔCTD_Reg1 (human Regnase-1 amino acids …); test: cell-based or functional assay; remark: listed apart in the source
# [13] = biological target: T1, full-length human Regnase-1 with a FLAG …; test: cell-based or functional assay; remark: listed apart in the source
Binder,AS-MS ratio(%) [1] [%],IC50 [2] [µM],"IC50, phosphorylation by IKKβ [3] [µM]","IC50, phosphorylation by IKKβ [4] [µM]","IC50, phosphorylation by IKKβ [5] [µM]",IC50 [6] [µM],"IC50, phosphorylation by TBK1 [7] [µM]","IC50, phosphorylation by TBK1 [8] [µM]","IC50, phosphorylation by TBK1 [9] [µM]",IC50 [10] [µM],IC50 [11] [µM],"IC50, phosphorylation by IKKβ [12] [µM]","IC50, phosphorylation by TBK1 [12] [µM]","IC50, phosphorylation by IKKβ [13] [µM]","IC50, phosphorylation by TBK1 [13] [µM]"
[NMeA]KFWIHHSFED (lactam N-11) [PP20],85,47.6,> 62.1,24.7,> 62.1,> 62.1,> 62.1,38.5,> 62.1,–,–,–,–,–,–
[NMeA]GYANSWYNIWD (lactam N-12) [PP2],14.2,15.5,14,16.6,18.5,35.8,17.6,21.7,22.4,15.5,35.8,14,17.6,16.6,21.7
[NMeA]RFGVWSWIYPD (lactam N-12) [PP14],4.2,7.1,9,1.6,6.5,20.1,5.2,3.1,6.8,–,–,–,–,–,–
[NMeA]DIWFDYWDWD (lactam N-11) [PP17],67.8,< 0.06,0.3,0.5,0.7,< 0.06,0.3,< 0.06,< 0.06,–,–,–,–,–,–
[NMeA]DIWFDYWDYD (lactam N-11) [PP18],71.6,< 0.06,0.2,0.4,0.5,< 0.06,1.8,0.6,0.9,–,–,–,–,–,–
[NMeA]NSWYINIWGHD (lactam N-12) [PP15],66.7,13.7,31,5.6,22,33.7,9.5,8.5,17.4,–,–,–,–,–,–
[NMeA]NSWYKIWGLD (lactam N-11) [PP21],15.1,5.6,39.3,19.6,37.2,20.7,11.7,13.5,17,–,–,–,–,–,–
[NMeA]NSWYRIWGLD (lactam N-11) [PP22],14.5,11.4,34,15,31,26.8,22.8,24.3,25.8,–,–,–,–,–,–
[NMeA]TSWYKVNWGQD (lactam N-12) [PP1],21.8,> 62.1,> 62.1,28.1,> 62.1,> 62.1,> 62.1,54.5,> 62.1,> 62.1,> 62.1,> 62.1,> 62.1,28.1,54.5
[NMeA]VFYKIWYNWD (lactam N-11) [PP19],2.1,2.4,12.6,5.4,10.1,5.8,4.6,3.7,5.8,–,–,–,–,–,–
[dNMeA]PTSSWYKIWD (lactam N-11) [PP23],28.6,9.2,> 62.1,25.6,> 62.1,41.3,29.7,18.8,30.7,–,–,–,–,–,–
[NMeA]NFSNSWYNIWD (lactam N-12) [PP16],17.9,20.2,30.8,20.6,42.2,> 62.1,38.1,52.4,> 62.1,–,–,–,–,–,–
[dNMeA]KHASAWYRIWD (lactam N-12) [PP3],1.2,3.1,8.3,4.6,6.8,8.3,5.7,3.9,7.1,3.1,8.3,8.3,5.7,4.6,3.9
